The text below walks through data of patent publication US20240101640A1 (CSL BEHRING, published 2024).

B1: HuLRP1(1-24)-FLAG-HuLRP1(806-1183)-8His (huLRP1 soluble minireceptor, ligand binding domain II) (receptor)
chain: AIDAPDYKDDDDKKKCRVNNGGCSSLCLATPGSRQCACAEDQVLDADGVTCLANPSYVPPPQCQPGEFACANSRCIQERWKCDGDNDCLDNSDEAPALCHQHTCPSDRFKCENNRCIPNRWLCDGDNDCGNSEDESNATCSARTCPPNQFSCASGRCIPISWTCDLDDDCGDRSDESASCAYPTCFPLTQFTCNNGRCININWRCDNDNDCGDNSDEAGCSHSCSSTQFKCNSGRCIPEHWTCDGDNDCGDYSDETHANCTNQATRPPGGCHTDEFQCRLDGLCIPLRWRCDGDTDCMDSSDEKSCEGVTHVCDPSVKFGCKDSARCISKAWVCDGDNDCEDNSDEENCESLACRPPSHPCANNTSVCLPPDKLCDGNDDCGDGSDEGELCDHHHHHHHH
notes: also called LRP1.2; LPR1 domain II
B2: HuLRP1(1-24)-FLAG-HuLRP1(25-113)-8His (huLRP1 soluble minireceptor, ligand binding domain I) (receptor)
chain: AIDAPDYKDDDDKKKTCSPKQFACRDQITCISKGWRCDGERDCPDGSDEAPEICPQSKAQRCQPNEHNCLGTELCVPMSRLCNGVQDCMDGSDEGPHCRELQGHHHHHHHH
notes: also called LPR1 domain I; LRP1 domain 1
B3: heme-hemopexin complex (human plasma derived hemopexin saturated with hemin) (ligand)
chain: TPLPPTSAHGNVAEGETKPDPDVTERCSDGWSFDATTLDDNGTMLFFKGEFVWKSHKWDRELISERWKNFPSPVDAAFRQGHNSVFLIKGDKVWVYPPEKKEKGYPKLLQDEFPGIPSPLDAAVECHRGECQAEGVLFFQGDREWFWDLATGTMKERSWPAVGNCSSALRWLGRYYCFQGNQFLRFDPVRGEVPPRYPRDVRDYFMPCPGRGHGHRNGTGHGNSTHHGPEYMRCSPHLVLSALTSDNHGATYAFSGTHYWRLDTSRDGWHSWPIAHQWPQGPSAVDAAFSWEEKLYLVQGTQVYVFLTKGGYTLVSGYPKRLEKEVGTPHGIILDSVDAAFICPGSSRLHIMAGRRLWWLDLKSGAQATWTELPWPHEKVDGALCMEKSLGPNSCSANGPGLYLIHGPNLYCYSDVEKLNAAKALPQPQNVTSLLGCTH
modifications: heme (hemin) bound non-covalently in a 1:1 ratio
notes: also called heme-hpx complex; heme-hx complex

The target of experiment [1] is B3. In words: BLI (Octet), LRP1.2 captured on anti-Penta-His biosensor, heme-hpx complex as analyte at 0.312-2.5 µM [LRP1.2]. The method, then: (§1) Individual LRP1 domains were immobilized on the biosensor surface. After baseline recording four concentration of heme-hpx complexes were tested (2.5, 1.25, 0.625 and 0.312 μM). For LRP1.3 the reference subtracted and processed kinetic dataset was globally fitted using a 1:1 binding model. Heme-hpx is shown in red curves, fitted curve as solid black line. LRP1.1, LRP1.2, LRP1.4 and LRP1.5 were not fitted.
(§2) As described above, anti-penta His antibody pre-coated biosensors (Cat N°: 18-5120, ForteBio, TechNote 43: Anti-Penta-HIS (HIS1K) biosensors for label-free analysis of HIS-tagged proteins, 2019) were used. The different LRP1 domains were immobilized at a concentration of 15 μg/mL in 10× kinetic buffer (PBS, 0.1% BSA, 0.02% Tween20). Heme-Hpx complex was diluted in 10× kinetic buffer (PBS, 0.1% BSA, 0.02% Tween20). The association and dissociation kinetics of heme-hemopexin complex, were performed at concentrations of 2.5, 1.25, 0.625 and 0.3125 μM. A reference control was included in every experiment (sensor loaded with ligand without analyte). Data was acquired on an OctetRED96 (FortéBio) at 30° C. with the following settings:
(§3) To investigate and determine, which of the LRP1 domains bind the heme-hpx complex, each of the domains were tethered on biosensors (HIS1K; anti-penta-His) via the expressed His-tag.
Background: BLI is a label-free optical method that tracks binding on a fibre tip over time.

The target in experiment [2] is B3. In words: BLI (Octet), LRP1.1 captured on anti-Penta-His biosensor, heme-hpx complex as analyte at 0.312-2.5 µM [LRP1.1]. The protocol:
as §1, §2, §3

Experiment [3] has as its target T1, HuLRP1(1-24)-FLAG-HuLRP1(2481-2942)-8His (huLRP1 soluble minireceptor, ligand binding domain III) (human, UniProt Q07954 2481-2942).
T1 construct: Made in ExpiCHO-S cells; also called LRP1.3; LRP1 domain III
In words: SPR, LRP1.3 tethered on NTA chip, heme-hpx complex batch T0342022C as printed, 1:1 steady state fit, N = 1. Background: SPR reads the build-up and loss of mass on a sensor chip optically.

Experiment [4] has as its target T2, HuLRP1(1-24)-FLAG-HuLRP1(3293-3783)-8His (huLRP1 soluble minireceptor, ligand binding domain IV) (human, UniProt Q07954 3293-3783).
T2 construct: also called LRP1.4; LPR1 domain IV
Kind of experiment: BLI (Octet), LRP1.4 captured on anti-Penta-His biosensor, heme-hpx complex as analyte at 0.312-2.5 µM [LRP1.4]. The protocol: as §1, §2, §3

Experiment [5] has as its target T1, HuLRP1(1-24)-FLAG-HuLRP1(2481-2942)-8His …. In words: SPR (Biacore), LRP1.3 tethered on NTA chip, heme-hpx complex ("aged", batch TO342022B by the legend) as analyte at 0.62-20 µM, steady state 1:1 fit. The method, then: (§4) Heme-hpx complex was injected in duplicate at concentrations ranging from 0.62 to 20 μM in 2-fold dilution series over 30 seconds. The dissociation was monitored for 60 seconds. No regeneration step was required between cycles since the complex dissociated fully. Sensogram data from active surface (flow cell 4) were double referenced by subtraction of data from reference surface (flow cells 3) and blank injections. Sensogram data were fit to a 1:1 steady state model.

The target is the same in experiment [6]. Kind of experiment: SPR (Biacore, 37 °C), heme-hpx (batch TO411122) captured by anti-hemopexin polyclonal antibody on CM5, LRP1.3 0.312-20 µM as analyte, kinetic fit (not optimal).
Experiment [7] shares this target. In words: SPR, LRP1.3 tethered on NTA chip (capture cross link), heme-hpx (batch TO411122) 0.62-20 µM, 1:1 steady state fit, run 2. The protocol:
as §4
(§5) In a next step and as mentioned above an alternative assay setup was developed as illustrated in FIG. 7A.

Experiment [8] shares this target. Kind of experiment: SPR, LRP1.3 tethered on NTA chip, heme-hpx complex batch TO342022B (“Aged”), 1:1 steady state fit, N = 1. The method, then: as §4
Experiment [9] shares this target. Kind of experiment: SPR, LRP1.3 tethered on NTA chip (capture cross link), heme-hpx (batch TO411122), 1:1 steady state fit, mean of N = 3.
Experiment [10] shares this target. In words: SPR (Biacore), LRP1.3 tethered on NTA chip, heme-hpx complex batch TO411122 (as titled on the sheet) as analyte at 0.62-20 µM, steady state 1:1 fit. The protocol:
as §4

Experiment [11] has the same target. In words: BLI (OctetRED96, 30 °C), LRP1.3 captured on anti-penta-His biosensor, heme-hpx (batch TO294001) 2.5-0.312 µM, global 1:1 fit. The method, then:
as §1
as §2, with “settings: […]” for “settings:”

The target is the same in experiment [12]. In words: SPR (Biacore), LRP1.3 tethered on NTA chip, heme-hpx complex ("new", batch TO341022BM by the legend) as analyte at 0.62-20 µM, steady state 1:1 fit. The protocol: as §4
The target is the same in experiment [13]. In words: SPR, LRP1.3 tethered on NTA chip (capture cross link), heme-hpx (batch TO411122) 0.62-20 µM, 1:1 steady state fit, run 3. The protocol:
as §4, §5

The target of experiment [14] is T3, HuLRP1 (3332-3779)-8His (second ligand binding domain IV construct) (human, UniProt Q07954 3332-3779).
T3 construct: Any N-terminal residues left from a signal peptide or tag are not described; also called LRP1.5; LPR1 domain IV (LRP1.5)
Kind of experiment: BLI (Octet), LRP1.5 captured on anti-Penta-His biosensor, heme-hpx complex as analyte at 0.312-2.5 µM [LRP1.5]. The method, then: as §1, §2, §3

Experiment [15] addresses T1, HuLRP1(1-24)-FLAG-HuLRP1(2481-2942)-8His …. In words: SPR, LRP1.3 tethered on NTA chip, heme-hpx complex batch TO341022BM (“New”), 1:1 steady state fit, N = 1.
For experiment [16] the target is unchanged. In words: SPR, LRP1.3 tethered on NTA chip (capture cross link), heme-hpx (batch TO411122) 0.62-20 µM, 1:1 steady state fit, run 1. The protocol: as §4

Broadly, the Kd is the concentration at which binding is half-saturated. A lower Kd goes with higher affinity. The koff is a measure of how fast the partners let go of each other. For orientation: kon means the rate constant with which the complex forms.

T1 sequence (Q07954 other isoform, or with tags, fused parts or gaps): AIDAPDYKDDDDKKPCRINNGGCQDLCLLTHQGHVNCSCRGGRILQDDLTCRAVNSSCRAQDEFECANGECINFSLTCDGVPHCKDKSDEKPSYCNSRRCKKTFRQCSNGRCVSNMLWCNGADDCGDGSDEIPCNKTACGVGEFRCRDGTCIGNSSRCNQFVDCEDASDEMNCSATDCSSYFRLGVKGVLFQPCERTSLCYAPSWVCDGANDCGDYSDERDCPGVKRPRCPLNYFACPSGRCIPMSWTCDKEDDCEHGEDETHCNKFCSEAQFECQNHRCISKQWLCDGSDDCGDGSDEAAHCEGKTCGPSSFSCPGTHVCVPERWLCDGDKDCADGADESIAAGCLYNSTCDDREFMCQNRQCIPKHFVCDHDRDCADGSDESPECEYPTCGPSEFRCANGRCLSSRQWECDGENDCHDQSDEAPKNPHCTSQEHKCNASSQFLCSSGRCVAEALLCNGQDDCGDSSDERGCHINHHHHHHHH
T2 sequence (Q07954 other isoform, or with tags, fused parts or gaps): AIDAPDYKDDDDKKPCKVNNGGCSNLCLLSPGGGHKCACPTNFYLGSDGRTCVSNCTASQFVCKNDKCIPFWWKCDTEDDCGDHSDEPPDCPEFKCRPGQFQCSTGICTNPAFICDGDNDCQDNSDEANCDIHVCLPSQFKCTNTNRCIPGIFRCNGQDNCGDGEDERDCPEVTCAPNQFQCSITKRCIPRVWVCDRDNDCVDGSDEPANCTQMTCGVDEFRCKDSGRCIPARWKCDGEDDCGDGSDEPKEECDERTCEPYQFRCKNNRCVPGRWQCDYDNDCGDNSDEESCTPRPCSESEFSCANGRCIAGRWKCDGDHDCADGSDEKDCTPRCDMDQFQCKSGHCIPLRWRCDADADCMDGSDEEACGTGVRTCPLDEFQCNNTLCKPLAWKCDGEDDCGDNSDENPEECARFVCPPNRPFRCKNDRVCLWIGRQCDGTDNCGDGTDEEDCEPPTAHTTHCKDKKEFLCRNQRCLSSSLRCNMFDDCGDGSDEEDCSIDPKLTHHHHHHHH
T3 sequence (Q07954 other isoform, or with tags, fused parts or gaps): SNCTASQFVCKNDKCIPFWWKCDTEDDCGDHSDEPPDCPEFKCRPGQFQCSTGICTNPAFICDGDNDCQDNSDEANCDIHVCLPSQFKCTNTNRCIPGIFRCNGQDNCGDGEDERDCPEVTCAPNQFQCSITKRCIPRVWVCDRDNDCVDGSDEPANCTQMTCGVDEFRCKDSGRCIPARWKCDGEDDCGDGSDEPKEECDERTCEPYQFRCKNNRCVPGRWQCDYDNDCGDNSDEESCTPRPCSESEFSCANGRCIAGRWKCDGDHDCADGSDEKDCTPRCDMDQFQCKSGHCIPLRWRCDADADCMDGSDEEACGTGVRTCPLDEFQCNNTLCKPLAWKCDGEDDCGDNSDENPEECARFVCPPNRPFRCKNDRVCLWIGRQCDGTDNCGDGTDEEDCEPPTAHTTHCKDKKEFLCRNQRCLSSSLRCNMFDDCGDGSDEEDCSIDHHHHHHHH

Regarding B1, the binding result in experiment [1] was “no binding (tested: 2.5 µM heme-hpx complex)”.
As for B2, the binding result in experiment [2] is “no binding (tested: 2.5 µM heme-hpx complex)”.
As for B3, the Kd in [3] was 1340 nM; in experiment [5], 1400 nM; in experiment [6], about 2000 nM; in experiment [7] it was 2610 nM; in experiment [8], 1350 nM; in experiment [9], 2620 nM. In addition, the Kd in experiment [10] came to 1400 nM; in [11] it was 1460 nM; in experiment [12] it was 1400 nM; in experiment [13], 2630 nM; in [15], 1410 nM; in experiment [16], 2620 nM. The binding result in [4] and in experiment [14] was “no binding (tested: 2.5 µM heme-hpx complex)” in each case. Moreover, the off-rate constant (koff) in [11] turned out to be 0.0555 s⁻¹. Further, in experiment [11], the kon was 37900 M⁻¹ s⁻¹.
